Results on 1 molecule are retold here after patent US20220251237A1 (R P SCHERER TECHNOLOGIES, published 2022).

Assay [1] deals with T1, human glypican-3-His (R&D Systems) (human, UniProt P51654 25-559).
T1 construct: Bought His-tagged protein; also called recombinant human glypican-3 protein; GPC3; not shown: His tag
Nature of the assay: ELISA, plate coated with 1 µg/mL human glypican-3-His. The procedure:
(§1) To perform the ELISA, Maxisorp 96-well plates (Nunc) were coated overnight at 4° C. with 1 μg/mL of human glypican-3-His (R&D Systems) in PBS. The plate was blocked with casein buffer (ThermoFisher), and then CAT-07 was plated in an 11-step series of 2-fold dilutions starting at 150 ng/mL. The plate was incubated, shaking, at room temperature for 2 h. After washing in PBS 0.1% Tween-20, bound analyte was detected with a donkey anti-human Fc-γ-specific horseradish peroxidase (HRP)-conjugated secondary antibody. Signals were visualized with Ultra TMB (Pierce) and quenched with 2 N H₂SO₄. Absorbance at 450 nm was determined using a Molecular Devices SpectraMax M5 plate reader and the data were analyzed using GraphPad Prism.
(An ELISA detects its analyte on a solid surface through an enzyme-linked reagent.)

The target of assay [2] is T2, human glypican-5 His-tagged protein (R&D Systems) (human, UniProt P78333 25-551, limits assumed).
T2 construct: Bought; not shown: His tag
T2 sequence (looked up): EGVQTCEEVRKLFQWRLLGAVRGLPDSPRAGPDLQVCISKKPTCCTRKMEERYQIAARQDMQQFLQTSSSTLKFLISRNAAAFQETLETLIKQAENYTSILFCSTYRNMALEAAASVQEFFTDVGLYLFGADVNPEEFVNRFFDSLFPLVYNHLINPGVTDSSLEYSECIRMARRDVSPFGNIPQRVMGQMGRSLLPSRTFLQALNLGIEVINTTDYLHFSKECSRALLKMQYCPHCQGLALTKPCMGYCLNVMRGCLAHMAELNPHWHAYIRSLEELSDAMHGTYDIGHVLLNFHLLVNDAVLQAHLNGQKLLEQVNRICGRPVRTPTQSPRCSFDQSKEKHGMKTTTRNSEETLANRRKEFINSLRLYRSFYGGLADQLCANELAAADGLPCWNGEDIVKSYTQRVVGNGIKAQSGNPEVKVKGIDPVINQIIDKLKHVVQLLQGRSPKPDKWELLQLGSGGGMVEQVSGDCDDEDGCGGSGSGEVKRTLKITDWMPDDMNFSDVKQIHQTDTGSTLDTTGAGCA
Nature of the assay: ELISA, plate coated with 1 µg/mL His-tagged glypican. The procedure:
as §1, with “of human glypican His-tagged proteins (glypican-1, glypican-2, glypican-3, glypican-5, and glypican-6 all from R&D Systems) in” for “of human glypican-3-His (R&D Systems) in”, “PBS. The plates were blocked with” for “PBS. The plate was blocked with”, “ng/mL. The plates was incubated,” for “ng/mL. The plate was incubated,”

Assay [3] concerns the target T3, human glypican-1 His-tagged protein (R&D Systems) (human, UniProt P35052 24-530, limits assumed).
T3 construct: Bought; not shown: His tag
T3 sequence (looked up): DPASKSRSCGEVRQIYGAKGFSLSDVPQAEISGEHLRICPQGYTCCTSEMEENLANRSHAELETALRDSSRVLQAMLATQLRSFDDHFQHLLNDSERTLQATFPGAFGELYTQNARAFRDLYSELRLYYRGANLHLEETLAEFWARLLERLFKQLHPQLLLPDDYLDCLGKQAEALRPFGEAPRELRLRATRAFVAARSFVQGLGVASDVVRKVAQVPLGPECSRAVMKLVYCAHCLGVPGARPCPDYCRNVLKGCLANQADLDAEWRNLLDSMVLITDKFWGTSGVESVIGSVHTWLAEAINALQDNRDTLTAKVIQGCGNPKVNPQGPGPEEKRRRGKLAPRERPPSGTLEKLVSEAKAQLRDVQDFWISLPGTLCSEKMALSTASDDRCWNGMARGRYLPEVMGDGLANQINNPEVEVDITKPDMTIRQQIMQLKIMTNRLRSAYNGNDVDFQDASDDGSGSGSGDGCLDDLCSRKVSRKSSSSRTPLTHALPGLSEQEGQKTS
Described as above. The protocol:
as §1, with “of human glypican His-tagged proteins (glypican-1, glypican-2, glypican-3, glypican-5, and glypican-6 all from R&D Systems) in” for “of human glypican-3-His (R&D Systems) in”, “PBS. The plates were blocked with” for “PBS. The plate was blocked with”, “ng/mL. The plates was incubated,” for “ng/mL. The plate was incubated,”

Assay [4] has as its target T4, human glypican-6 His-tagged protein (R&D Systems) (human, UniProt Q9Y625 24-529, limits assumed).
T4 construct: Bought; not shown: His tag
T4 sequence (looked up): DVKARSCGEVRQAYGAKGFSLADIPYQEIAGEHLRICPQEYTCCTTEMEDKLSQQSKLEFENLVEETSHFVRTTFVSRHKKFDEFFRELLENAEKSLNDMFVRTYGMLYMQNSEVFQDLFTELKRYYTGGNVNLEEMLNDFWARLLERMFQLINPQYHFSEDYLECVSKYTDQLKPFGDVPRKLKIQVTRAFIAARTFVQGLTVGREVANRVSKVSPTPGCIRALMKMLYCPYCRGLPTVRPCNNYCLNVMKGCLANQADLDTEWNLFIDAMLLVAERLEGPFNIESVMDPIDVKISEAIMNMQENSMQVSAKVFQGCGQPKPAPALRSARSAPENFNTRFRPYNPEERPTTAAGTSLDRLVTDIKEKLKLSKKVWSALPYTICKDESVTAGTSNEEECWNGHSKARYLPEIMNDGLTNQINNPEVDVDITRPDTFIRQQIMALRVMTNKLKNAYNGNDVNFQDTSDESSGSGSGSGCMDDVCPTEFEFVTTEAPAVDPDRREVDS
The description is as above. The procedure:
as §1, with “of human glypican His-tagged proteins (glypican-1, glypican-2, glypican-3, glypican-5, and glypican-6 all from R&D Systems) in” for “of human glypican-3-His (R&D Systems) in”, “PBS. The plates were blocked with” for “PBS. The plate was blocked with”, “ng/mL. The plates was incubated,” for “ng/mL. The plate was incubated,”

Assay [5] addresses T5, human glypican-2 His-tagged protein (R&D Systems) (human, UniProt Q8N158 24-554, limits assumed).
T5 construct: Bought; not shown: His tag
T5 sequence (looked up): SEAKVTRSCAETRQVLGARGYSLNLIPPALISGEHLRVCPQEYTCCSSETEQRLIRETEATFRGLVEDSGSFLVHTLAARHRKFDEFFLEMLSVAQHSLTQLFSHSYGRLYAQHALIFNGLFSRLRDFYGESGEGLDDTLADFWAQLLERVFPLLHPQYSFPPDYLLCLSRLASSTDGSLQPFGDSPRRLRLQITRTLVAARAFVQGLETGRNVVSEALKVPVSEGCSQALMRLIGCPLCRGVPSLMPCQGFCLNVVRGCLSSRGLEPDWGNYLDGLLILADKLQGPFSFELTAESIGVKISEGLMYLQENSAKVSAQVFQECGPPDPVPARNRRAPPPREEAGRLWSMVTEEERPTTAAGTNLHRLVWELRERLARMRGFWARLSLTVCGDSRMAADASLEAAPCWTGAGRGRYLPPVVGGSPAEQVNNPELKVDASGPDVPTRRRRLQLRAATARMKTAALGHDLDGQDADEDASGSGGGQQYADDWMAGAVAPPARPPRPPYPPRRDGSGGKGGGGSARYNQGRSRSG
Described as above. The procedure: as §1, with “of human glypican His-tagged proteins (glypican-1, glypican-2, glypican-3, glypican-5, and glypican-6 all from R&D Systems) in” for “of human glypican-3-His (R&D Systems) in”, “PBS. The plates were blocked with” for “PBS. The plate was blocked with”, “ng/mL. The plates was incubated,” for “ng/mL. The plate was incubated,”

T1 sequence (P51654 25-559 limits assumed): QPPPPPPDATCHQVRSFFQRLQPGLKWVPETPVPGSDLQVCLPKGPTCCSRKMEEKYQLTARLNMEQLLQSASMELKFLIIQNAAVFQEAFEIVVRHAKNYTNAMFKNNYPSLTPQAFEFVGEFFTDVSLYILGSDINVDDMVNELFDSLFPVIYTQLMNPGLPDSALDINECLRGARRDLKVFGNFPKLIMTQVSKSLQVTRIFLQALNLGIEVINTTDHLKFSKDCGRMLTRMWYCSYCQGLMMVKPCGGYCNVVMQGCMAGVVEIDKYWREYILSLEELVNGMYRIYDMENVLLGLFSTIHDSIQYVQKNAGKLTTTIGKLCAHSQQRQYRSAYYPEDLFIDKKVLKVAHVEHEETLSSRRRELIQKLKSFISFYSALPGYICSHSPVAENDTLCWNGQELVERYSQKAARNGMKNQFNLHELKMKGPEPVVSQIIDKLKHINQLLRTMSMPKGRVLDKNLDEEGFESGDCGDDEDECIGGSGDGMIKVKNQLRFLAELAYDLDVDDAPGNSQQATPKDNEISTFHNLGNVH

B1: CAT-07 monoclonal antibody (antibody, human IgG1, kappa, V domains shown)
VH: QVQLVQSGAEVKKPGASVKVSCKASGYTFTSYFLHWVRQAPGQGLEWMGIIDPPTGRTTYAQKFQGRVTMTRDTSTSTVYMELSSLRSEDTAVYYCARGNYGGRYFDYWGQGTLVTVSS
VL: not shown
In the case of B1, the binding result is listed as “binds” in assay [1]; “no binding (tested: 2-fold dilutions starting at 150 ng/mL)” in assay [2]; “no binding (tested: 2-fold dilutions starting at 150 ng/mL)” in assay [3]; “no binding (tested: 2-fold dilutions starting at 150 ng/mL)” in assay [4]; “no binding (tested: 2-fold dilutions starting at 150 ng/mL)” in assay [5].
